Molecular target: C/EBPβ bZIP domain (mouse, UniProt P28033 221-296)
Assay: fluorescence polarization; FP: 5 nM DNA, 20 mM Tris-HCl pH 7.5, 150 mM NaCl, 5% glycerol, 0.5 mM TCEP, 0.1 mg/ml BSA, 30 min, temperature not stated; EMSA conditions as in earlier work, not given
Conditions: protein: recombinant; tags: N-terminal 6xHis (pET-45b); chain copies: 2; label: 5'-FAM on strand 1; blunt

Chain of C/EBPβ bZIP domain (P28033 221-296): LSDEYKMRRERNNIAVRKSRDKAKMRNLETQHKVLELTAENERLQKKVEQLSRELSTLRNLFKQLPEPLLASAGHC

B1: FP_CREB (unmethylated half-CRE•C/EBP Il36a) (dsDNA)
DNA 1: CATCTTACGTCACCT
DNA 2: AGGTGACGTAAGATG
Kd: 80 ± 30 nM

B2: FP_CREBmeth (methylated half-CRE•C/EBP Il36a) (dsDNA)
DNA 1: CATCTTACGTCACCT
DNA 2: AGGTGACGTAAGATG
modifications: 5-methyl-C (mC) at position 8 of strand 1 and position 7 of strand 2
Kd: 100 ± 30 nM

From paper PMC8674125, “Analysis of Il36a induction by C/EBPβ via a half-CRE•C/EBP element in murine macrophages in dependence of its CpG methylation level”
